From patent publication US20260151519A1 (AKTIS ONCOLOGY, published 2026)
Bridges are numbered along the chain shown (N, C = ends). Primed or numbered codes have the meaning given here. Where no end group is shown, it is not given here. [ ]: non-standard residue; d: D form. The star is where a group is joined. Biotin = O=C1N[C@H]2[C@H](CS[C@H]2CCCCC(=O)*)N1; hydroxy‑norleucine = hydroxy-norleucine residue; Lys(Me3) = C[N+](C)(C)CCCC[C@H](N)C(=O)O; Cit = NC(=O)NCCC[C@H](N)C(=O)O; PEG4″ = 4(ethylene glycol); Nle = CCCC[C@H](N)C(=O)O

B1: C143 (designed binder)
chain: {Biotin-PEG4″}-CEYDEEFFTALARLRGDDICSYIQAKFQYLPGLCIEEILDNLGCS-OH
modifications: disulfide 1-34, 20-44
B2: C149 (designed binder)
chain: {Biotin-PEG4″}-CEYDEEFFTALARLRGGDICQYIQAKFQYLPGQCIEEILDNLGCS
modifications: disulfide 1-34, 20-44
B3: C185 (designed binder)
chain: {Biotin-PEG4″}-CEYDEQFFTALKRLRGADICSYIQASFQYLPGLCIEEILDNLGCS
modifications: disulfide 1-34, 20-44
B4: C259 (designed binder)
chain: {Biotin-PEG4″}-CDYDEQFFTALA[Cit]LRGGDICEYIQA[Lys(Me3)]FQYLPGLCIEEILDNLGCS-OH
modifications: disulfide 1-34, 20-44
B5: C67 (designed binder)
chain: Ac-CEYDEEFFLGLKRLRGGDICYYIKKKFKKVPELCIEEILKKLGC-OH
modifications: disulfide 1-34, 20-44
B6: C68 (designed binder)
chain: Ac-CEYDEEFFLGLKRLRGGDICYYIKKKFKKVPELCIEEILEKLGC-OH
modifications: disulfide 1-34, 20-44
B7: C69 (designed binder)
chain: Ac-CEYDEEFFKGLKRLRGGDICYYIKKKFKKVPKLCIEEILEKLGC-OH
modifications: disulfide 1-34, 20-44
B8: C70 (designed binder)
chain: Ac-CEYDEKFFTGLKRLRGGDICYYIKKKFKKVPKLCIEEILDKLGC-OH
modifications: disulfide 1-34, 20-44
B9: C71 (designed binder)
chain: Ac-CEYDEQFFTGLKRLRGGDICYYIKKKFKKVPKLCIEEILDKLGC-OH
modifications: disulfide 1-34, 20-44
B10: C76 (designed binder)
chain: Ac-CEYDEEFFKALKRLRGGDICYYIKKKFKKVPKLCIEEILEKLGC-OH
modifications: disulfide 1-34, 20-44
B11: C77 (designed binder)
chain: Ac-CEYDEEFFLALKRLRGGDICYYIKKKFKKVPKLCIEEILEKLGC-OH
modifications: disulfide 1-34, 20-44
B12: C78 (designed binder)
chain: Ac-CEYDEEFFLALKRLRGGDICYYIKKKFKKVPKLCIEEILDKLGC-OH
modifications: disulfide 1-34, 20-44
B13: C79 (designed binder)
chain: Ac-CEYDEEFFTALKRLRGGDICYYIKKKFKKVPKLCIEEILEKLGC-OH
modifications: disulfide 1-34, 20-44
B14: C80 (designed binder)
chain: Ac-CEYDEEFFKGLKRLRGGDICYYIKKKFKKVPKLCIEEILDKLGC-OH
modifications: disulfide 1-34, 20-44
B15: C81 (designed binder)
chain: Ac-CEYDEEFFKALKRLRGGDICYYIKKKFKKVPKLCIEEILDKLGC-OH
modifications: disulfide 1-34, 20-44
B16: C171 (designed binder)
chain: {Biotin-PEG4″}-CEYDEEFFTALA[Cit]LRGGDICEYIQAKFQYLPGLCIEEILDNLGCS-OH
modifications: disulfide 1-34, 20-44
B17: C163 (designed binder)
chain: {Biotin-PEG4″}-CEYDEEFFTALA[Cit]LRGGDICYYIQAKFQYLPGLCIEEILDNLGCS-OH
modifications: disulfide 1-34, 20-44
B18: C172 (designed binder)
chain: {Biotin-PEG4″}-CEYDEEFFTALA[Cit]LRGDDICSYIQAKFQYLPGLCIEEILDNLGCS-OH
modifications: disulfide 1-34, 20-44
B19: C175 (designed binder)
chain: {Biotin-PEG4″}-CEYDEEFFTALA[Cit]LRGGDICSYIQAKFQYLPGLCIEEILDNLGCS-OH
modifications: disulfide 1-34, 20-44
B20: C176 (designed binder)
chain: {Biotin-PEG4″}-CDYDEEFFTALA[Cit]LRGGDICEYIQAKFQYLPGLCIEEILDNLGCS-OH
modifications: disulfide 1-34, 20-44
B21: C164 (designed binder)
chain: {Biotin-PEG4″}-CEYDEEFFTALARLRGGDICYYIQA[hydroxy‑norleucine]FQYLPGLCIEEILDNLGCS-OH
modifications: disulfide 1-34, 20-44
B22: C199 (designed binder)
chain: {Biotin-PEG4″}-CEYDEEFFTALKRLRGGDICEYIQA[Nle]FQYLPGLCIEEILDNLGCS-OH
modifications: disulfide 1-34, 20-44
B23: C170 (designed binder)
chain: {Biotin-PEG4″}-CEYDEEFFTALA[Cit]LRGDDICSYIQA[hydroxy‑norleucine]FQYLPGLCIEEILDNLGCS-OH
modifications: disulfide 1-34, 20-44
B24: C173 (designed binder)
chain: {Biotin-PEG4″}-CEYDEEFFTALARLRGGDICYYIQA[hydroxy‑norleucine]FQYLPGLCIEEILDNLGCS-OH
modifications: disulfide 1-34, 20-44
B25: C100 (designed binder)
chain: Ac-CEYDEQFFTALKRLRGGDICYYISAQFNTLPDLCIEEILENLGC-OH
modifications: disulfide 1-34, 20-44
B26: C103 (designed binder)
chain: {Biotin-PEG4″}-CEYDEQFFTALKRLRGGDICYYISAQFNTLPDLCIEEILENLGC-OH
modifications: disulfide 1-34, 20-44
B27: C104 (designed binder)
chain: Ac-CEYDEEFFTALKKLRGGDICYYIQQAFNYLPGICIEEILDNLGC-OH
modifications: disulfide 1-34, 20-44
B28: C132 (designed binder)
chain: Ac-CEYDEEFFTALSRLRGGDICYYIQQAFQYLPGLCIEEILDNLGC-NH2
modifications: disulfide 1-34, 20-44
B29: C107 (designed binder)
chain: {Biotin-PEG4″}-CEYDEEFFTALKKLRGGDICYYIQQAFNYLPGICIEEILDNLGC
modifications: disulfide 1-34, 20-44
B30: C112 (designed binder)
chain: Ac-CEYDEQFFTALKALRGGDICYYIQASFNYLPDLCIEEILDNLGC-NH2
modifications: disulfide 1-34, 20-44
B31: C128 (designed binder)
chain: Ac-CEYDEQFFTALARLRGGDICYYIQEQFATVPGLCIEEILDQLGC-NH2
modifications: disulfide 1-34, 20-44
B32: C131 (designed binder)
chain: {Biotin-PEG4″}-CEYDEQFFTALARLRGGDICYYIQEQFATVPGLCIEEILDQLGCS-OH
modifications: disulfide 1-34, 20-44
B33: C136 (designed binder)
chain: Ac-CEYDEQFFTALSSLRGGDICYYIQEQFANVPGICIEEILDNLGC
modifications: disulfide 1-34, 20-44
B34: C139 (designed binder)
chain: {Biotin-PEG4″}-CEYDEQFFTALSSLRGGDICYYIQEQFANVPGICIEEILDNLGCS
modifications: disulfide 1-34, 20-44

The binders below were run against T1, Human Nectin-4 (human, UniProt Q96NY8 32-349, limits assumed) (assay: SPR, Biacore T200, target immobilised, 1:1 model).
T1 construct: Protein immobilised on the SPR chip; also called target protein
T1 sequence: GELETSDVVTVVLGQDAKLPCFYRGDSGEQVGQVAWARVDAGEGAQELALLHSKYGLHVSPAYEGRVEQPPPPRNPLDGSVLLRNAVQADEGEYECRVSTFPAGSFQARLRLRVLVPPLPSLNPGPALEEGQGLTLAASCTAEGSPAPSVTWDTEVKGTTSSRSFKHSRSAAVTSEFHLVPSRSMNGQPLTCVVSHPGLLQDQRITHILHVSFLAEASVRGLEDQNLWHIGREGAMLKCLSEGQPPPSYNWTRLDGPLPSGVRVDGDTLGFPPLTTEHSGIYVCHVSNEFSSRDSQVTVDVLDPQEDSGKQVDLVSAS
Method: Surface plasmon resonance (SPR) analyses were performed using Biacore T200 (GE Healthcare). Target protein (“ligand”) was immobilized to a CM5 Series S sensor chip (Cytiva) using amine-coupling chemistry. Running buffer was 0.05% surfactant P20 in HEPES buffered saline (HBS-P), pH 7.4 (Cytiva). Immobilization was performed at 25° C. Carboxyl groups in each flow cell were activated using a 1:1 mixture of 0.4 M 1-ethyl-3-(3-dimethylaminopropyl)-carbodiimide in water (EDC) and 0.1 M N-hydroxysuccinimide in water (NHS) for 7 minutes. The ligand was prepared in 10 mM sodium acetate pH 5 (Cytiva). Pulsatile injections were made to target a specific immobilization level. Any remaining amine-reactive esters on the chip surface were blocked with a 7-minute injection of 1 M ethanolamine, pH 8.5. Three 10-second pulses of 50 mM sodium hydroxide were then made to remove any unbound ligand. Reference cells were modified using amine coupling chemistry, omitting ligand injection.
Increase in signal (RU) is proportional to an increase in binding events between the analyte and ligand surface. The injection was then stopped, and dissociation was measured. […] Measured association (kₐ, 1/Ms⁻¹) and dissociation (kd, s⁻¹) were fit to a 1:1 binding model to calculate a dissociation equilibrium constant, KD(M) for each analyte.
B1 was tested, and the Kd was 0.238 nM.
With B2 the Kd was 0.297 nM.
Work on B3 yielded a Kd of 0.371 nM.
Work on B4 yielded a Kd of 0.226 nM.

The binders below were run against T1, Human Nectin-4 (assay: Table 2B (DELFIA or SPR)).
B1 gave a Kd of 0.55 nM.
With B2 the Kd was 0.75 nM.
With B3 the Kd was 1 nM.
B5 gave a Kd of 2.64 nM.
Binder B6 has a Kd of 2.66 nM.
In the case of B7, the Kd is reported as 1.86 nM.
B8 was tested, and the Kd was 2.2 nM.
With B9 the Kd was 2.85 nM.
Binder B10 has a Kd of 0.52 nM.
B11 was tested, and the Kd was 0.58 nM.
In the case of B12, the Kd is reported as 0.49 nM.
For B13, the Kd was 0.38 nM.
With B14 the Kd was 2.7 nM.
B15 gave a Kd of 0.43 nM.
Binder B16 has a Kd of 2.2 nM.
With B17 the Kd was 1.9 nM.
With B18 the Kd was 1.8 nM.
With B19 the Kd was 2.3 nM.
B20 showed a Kd of 1.3 nM.
For B21, the Kd was 5 nM.
With B22 the Kd was 3.5 nM.
B23 was tested, and the Kd was 8.8 nM.
For B24, the Kd was 5 nM.
Binder B25 has a Kd of 4.8 nM.
B26 showed a Kd of 6.6 nM.
B27 gave a Kd of 3.7 nM.
Binder B28 has a Kd of 30.1 nM.
B29 showed a Kd of 3.38 nM.
Work on B30 yielded a Kd of 6.24 nM.
Work on B31 yielded a Kd of 10.1 nM.
B32 was tested, and the Kd was 12.4 nM.
For B33, the Kd was 36.5 nM.
With B34 the Kd was 25.2 nM.
